Laboratory results taken from article PMC6093632 (Science Advances, 2018).

Target: the molecule itself
Test: cryo-EM structure

B1: full-length rat TRPV6 (natural protein, UniProt Q9R186 41-767, looked up)
chain: MGWSLPKEKGLILCLWNKFCRWFHRRESWAQSRDEQNLLQQKRIWESPLLLAAKENNVQALIKLLKFEGCEVHQKGAMGETALHIAALYDNLEAAMVLMEAAPELVFEPMTSELYEGQTALHIAVINQNVNLVRALLARGASVSARATGSVFHYRPHNLIYYGEHPLSFAACVGSEEIVRLLIEHGADIRAQDSLGNTVLHILILQPNKTFACQMYNLLLSYDGGDHLKSLELVPNNQGLTPFKLAGVEGNIVMFQHLMQKRKHIQWTYGPLTSTLYDLTEIDSSGDDQSLLELIVTTKKREARQILDQTPVKELVSLKWKRYGRPYFCVLGAIYVLYIICFTMCCVYRPLKPRITNRTNPRDNTLLQQKLLQEAYVTPKDDLRLVGELVSIVGAVIILLVEIPDIFRLGVTRFFGQTILGGPFHVIIVTYAFMVLVTMVMRLTNSDGEVVPMSFALVLGWCNVMYFARGFQMLGPFTIMIQKMIFGDLMRFCWLMAVVILGFASAFYIIFQTEDPDELGHFYDYPMALFSTFELFLTIIDGPANYDVDLPFMYSITYAAFAIIATLLMLNLLIAMMGDTHWRVAHERDELWRAQVVATTVMLERKLPRCLWPRSGICGREYGLGDRWFLRVEDRQDLNRQRIRRYAQAFQQQDDLYSEDLEKDSGEKLEMARPFGAYLSFPTPSVSRSTSRSSTNWDRLRQGALRKDLQGIINRGLEDGEGWEYQI
stoichiometry N: 4 subunits
